This is an account of results in patent US20250064909A1 (MEDIMABBIO, published 2025).

Substitutions are numbered along the chain they refer to. Where two headings read alike, the source gives them in different places.

Assay [1] concerns the target T1, TIGIT on cells (human primary T cells, PBMC, NK cells; Promega TIGIT effector cells) (human) (UniProt Q495A1).
T1 sequence: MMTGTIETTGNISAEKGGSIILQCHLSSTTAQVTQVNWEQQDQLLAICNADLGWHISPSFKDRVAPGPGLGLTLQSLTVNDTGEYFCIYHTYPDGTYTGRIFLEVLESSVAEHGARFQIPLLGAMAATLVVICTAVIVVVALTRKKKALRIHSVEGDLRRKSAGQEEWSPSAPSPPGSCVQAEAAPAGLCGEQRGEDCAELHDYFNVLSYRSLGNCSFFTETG

Assay [2] addresses T2, recombinant human TIGIT (Sino Biological) (human, UniProt Q495A1 22-138).
T2 construct: Bought protein; NP_776160.2; also called human TIGIT antigen; hTIGIT
T2 sequence: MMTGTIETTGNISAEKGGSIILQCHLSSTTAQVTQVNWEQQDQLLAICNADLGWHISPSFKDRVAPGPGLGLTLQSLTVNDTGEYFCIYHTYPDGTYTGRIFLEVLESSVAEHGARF
The assay can be described thus: SPR single cycle kinetics; KD divided by KD of the VH0/Vκ0 chimeric antibody.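 Further: biacore T200 SPR at 25 °C, IgG captured on anti-human chip, TIGIT analyte in four rising concentrations, 210 s association each, 900 s dissociation.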

The target of assay [3] is T2, recombinant human TIGIT (Sino …). Nature of the assay: SPR (Biacore T200), single cycle kinetics, IgG from supernatant captured on anti-human chip, TIGIT as analyte, 1:1 fit.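 Further: measured at 25 °C in HBS-P+ with 1% BSA, four ascending TIGIT concentrations, 210 s association per step, one final 900 s dissociation.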
For assay [4], the target named is T3, TIGIT on cells (human primary T cells, PBMC, NK cells; Promega TIGIT effector cells) (human, UniProt Q495A1 22-244).
T3 sequence: T1 sequence
Nature of the assay: cell-based or functional assay.

Assay [5] addresses T3, TIGIT on cells (human primary T cells, …). Nature of the assay: cell-based or functional assay. The source holds these as a separate data set.
Assay [6] addresses T4, recombinant human TIGIT (Acrobiosystems) (human, UniProt Q495A1 22-141).
T4 construct: Bought protein; also called hTIGIT; human TIGIT antigen
T4 sequence: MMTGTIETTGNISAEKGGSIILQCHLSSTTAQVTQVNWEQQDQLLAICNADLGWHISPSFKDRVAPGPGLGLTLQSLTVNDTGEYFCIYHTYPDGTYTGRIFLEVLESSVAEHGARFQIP
Nature of the assay: SPR (Biacore T200), multi-cycle kinetics, purified IgG captured on anti-human IgG CM5 chip, TIGIT as analyte, 1:1 fit. In general terms: In SPR one partner is held on a chip, and binding of the other changes the refractive index at the surface.

In assay [7] the target is T3, TIGIT on cells (human primary T cells, …). Nature of the assay: cell-based or functional assay. The source holds these as a separate data set.
The target is the same in assay [8]. Nature of the assay: cell-based or functional assay. This is another data set of the same source.
Assay [9] has as its target T1, TIGIT on cells (human primary T cells, PBMC, NK cells; Promega TIGIT effector cells) (human). This is another data set of the same source.
Assay [10] shares this target. This is another data set of the same source.

For MBSA43 control (antibody), the EC50, NFAT reporter luminescence (TIGIT effector cells + CD155 aAPC/CHO-K1 cells; blocked ligand PVR/CD155) in assay [1] turned out to be 1.24 µg/mL.

B1: 7A6 VH3/Vκ2 humanized antibody (human IgG1, kappa) (antibody, V domains shown)
VH: QVQLQESGPGLVKPSQTLSLTCTVTGYSITSDYAWNWIRQPPGKGLEWMGYISYSGSARYNPSLKSRVTISRDTSKNQFSLKLSSVTAEDTATYYCARKGYPAYFAYWGQGTLVTVSS
VL: DIVMTQSPSSLSASVGDRVSITCKASQDVSTAVAWYQQKPGQAPRLLIYSASYRYTGVPDRFTGSGSGTDFTLTISSLQAEDVAVYYCQHHYSTPYTFGQGTKLEIKR
notes: Tested as IgG in supernatant of transiently transfected HEK293 EBNA cells
What is called Kd is the concentration at which binding is half-saturated. For orientation: koff means a measure of how fast the partners let go of each other. By kon is commonly meant a measure of how fast the partners come together. On to B1, for which, in [2], the “Relative KD” value amounted to 1.48. Further, in assay [3], the Kd came out at 963 pM, the koff amounted to 0.00173 s⁻¹ and the kon stood at 1.8e+06 M⁻¹ s⁻¹.

B2: 7A6 VH3/Vκ4 humanized antibody (human IgG1, kappa) (antibody, V domains shown)
VH: B1 VH
VL: B1 VL with V3Q, S20T, K24R, T63S
notes: as for B1
As to B2, the “Relative KD” value in assay [2] came to 1.84. Besides, in assay [3], the Kd amounted to 1200 pM, the koff was 0.00196 s⁻¹ and the kon is 1.63e+06 M⁻¹ s⁻¹.

B3: 7A6 VH4/Vκ4 humanized antibody (human IgG1, kappa) (antibody, V domains shown)
VH: B1 VH with E89A, T93V
VL: B1 VL with V3Q, S20T, K24R, T63S
notes: also called 7A6 VH4/Vk4; 7A6VH4/Vk4
In the case of B3, the “Relative KD” value in [2] was determined as 1.98. Besides, in assay [3], the equilibrium dissociation constant (Kd) turned out to be 1290 pM, the off-rate (koff) was 0.00192 s⁻¹ and the kon was 1.49e+06 M⁻¹ s⁻¹.

B4: 7A6 VH4/Vκ2 humanized antibody (human IgG1, kappa) (antibody, V domains shown)
VH: B1 VH with E89A, T93V
VL: B1 VL
notes: as for B1
Consider B4, for which, in assay [2], the “Relative KD” value stood at 1.63. Besides, in assay [3], the Kd was determined as 1060 pM, the koff was determined as 0.00185 s⁻¹ and the kon stood at 1.75e+06 M⁻¹ s⁻¹.

B5: 7A6 VH4/Vκ3 humanized antibody (human IgG1, kappa) (antibody, V domains shown)
VH: B1 VH with E89A, T93V
VL: B1 VL with V3Q, T63S
notes: as for B1
Regarding B5, the “Relative KD” value in [2] was 1.45. In assay [3], the Kd is 944 pM, the koff was found to be 0.00175 s⁻¹ and the kon came to 1.85e+06 M⁻¹ s⁻¹.

B6: anti-TIGIT 7A6 VH3/Vk5 humanized antibody (human IgG1, kappa) (antibody, V domains shown)
VH: B1 VH
VL: B1 VL with V3Q, T63S, A80P, V83F, V85T
notes: also called VH3Vκ5; 7A6 VH3/Vk5-IgG1
For B6, the “Relative KD” value in [2] came to 1.34. Also, in assay [3], the equilibrium dissociation constant (Kd) turned out to be 871 pM, the koff amounted to 0.00161 s⁻¹ and the association rate constant (kon) was found to be 1.85e+06 M⁻¹ s⁻¹. Besides, the “EC50, NFAT reporter luminescence (TIGIT effector cells + CD155 aAPC/CHO-K1 cells; blocked ligand PVR/CD155)” value in [4] was 0.521 µg/mL. The “EC50 of the mixture with nivolumab (both antibodies at the same concentration), NFAT reporter luminescence (PD-1+TIGIT+ effector cells + PD-L1+CD155 aAPC/CHO-K1 cells)” value in assay [5] turned out to be 0.581 µg/mL. In assay [6], the Kd worked out at 86.7 pM, the koff was found to be 0.000177 s⁻¹ and the kon amounted to 2.04e+06 M⁻¹ s⁻¹. Further, in [7], the “EC50 of the mixture with nivolumab (both antibodies at the same concentration), NFAT reporter luminescence (PD-1+TIGIT+ effector cells + PD-L1+CD155 aAPC/CHO-K1 cells)” value was found to be 0.594 µg/mL and the “EC50 of the mixture with pembrolizumab (both antibodies at the same concentration), NFAT reporter luminescence (PD-1+TIGIT+ effector cells + PD-L1+CD155 aAPC/CHO-K1 cells)” value came out at 0.38 µg/mL. Further, in [8], the “EC50 of the mixture with pembrolizumab (both antibodies at the same concentration), NFAT reporter luminescence (PD-1+TIGIT+ effector cells + PD-L1+CD155 aAPC/CHO-K1 cells)” value turned out to be 0.399 µg/mL.

B7: 7A6 VH5/Vκ2 humanized antibody (human IgG1, kappa) (antibody, V domains shown)
VH: B1 VH with R72V, E89A, T93V
VL: B1 VL
notes: as for B1
B7: the “Relative KD” value in assay [2] stood at 2.55. Further, in [3], the dissociation constant Kd was 1660 pM, the koff was determined as 0.00204 s⁻¹ and the kon amounted to 1.23e+06 M⁻¹ s⁻¹.

B8: 7A6 VH4/Vκ1 humanized antibody (human IgG1, kappa) (antibody, V domains shown)
VH: B1 VH with E89A, T93V
VL: B1 VL with P8H, S10F, R45E, I106M
notes: as for B1
As for B8, in assay [2], the “Relative KD” value was found to be 0.94. Further, in assay [3], the Kd came to 616 pM, the koff worked out at 0.00107 s⁻¹ and the kon is 1.73e+06 M⁻¹ s⁻¹.

B9: 7A6 VH5/Vκ5 humanized antibody (human IgG1, kappa) (antibody, V domains shown)
VH: B1 VH with R72V, E89A, T93V
VL: B1 VL with V3Q, T63S, A80P, V83F, V85T
notes: as for B1
For B9, the “Relative KD” value in assay [2] was 1.92. In assay [3], the Kd came to 1250 pM, the koff was 0.0017 s⁻¹ and the kon was determined as 1.36e+06 M⁻¹ s⁻¹.

B10: 7A6 VH5/Vκ3 humanized antibody (human IgG1, kappa) (antibody, V domains shown)
VH: B1 VH with R72V, E89A, T93V
VL: B1 VL with V3Q, T63S
notes: as for B1
Regarding B10, in assay [2], the “Relative KD” value was 2.32. In addition, in assay [3], the Kd turned out to be 1510 pM, the koff came to 0.00189 s⁻¹ and the kon was determined as 1.25e+06 M⁻¹ s⁻¹.

B11: 7A6 VH5/Vκ1 humanized antibody (human IgG1, kappa) (antibody, V domains shown)
VH: B1 VH with R72V, E89A, T93V
VL: B1 VL with P8H, S10F, R45E, I106M
notes: as for B1
Turning to B11, the “Relative KD” value in assay [2] came out at 1.32. Besides, in [3], the Kd came to 858 pM, the koff was determined as 0.00124 s⁻¹ and the kon worked out at 1.45e+06 M⁻¹ s⁻¹.

B12: 7A6 VH4/Vκ5 humanized antibody (human IgG1, kappa) (antibody, V domains shown)
VH: B1 VH with E89A, T93V
VL: B1 VL with V3Q, T63S, A80P, V83F, V85T
notes: as for B1
On to B12, for which the “Relative KD” value in [2] came to 1.41. In assay [3], the Kd came to 922 pM, the koff is 0.00162 s⁻¹ and the on-rate (kon) came to 1.76e+06 M⁻¹ s⁻¹.

B13: 7A6 VH5/Vκ4 humanized antibody (human IgG1, kappa) (antibody, V domains shown)
VH: B1 VH with R72V, E89A, T93V
VL: B1 VL with V3Q, S20T, K24R, T63S
notes: as for B1
Consider B13, for which, in assay [2], the “Relative KD” value is 2.33. Also, in [3], the Kd came to 1520 pM, the koff is 0.00181 s⁻¹ and the kon came out at 1.19e+06 M⁻¹ s⁻¹.

B14: TIG1 Arcus (antibody, from another filing, V domains shown)
VH: DVQLVESGGGLVQPGGSRKLSCAASGFTFSNFGMHWVRQAPEKGLEWVAFISSGSSSIYYADTVKGRFTISRDNPKNTLFLQMTSLRSEDTAMYYCARMRLDYYAMDYWGQGTSVTVSS
VL: DVQITQSPSYLAASPGETITINCRASKSISKYLAWYQEKPGKTNKLLIYSGSTLQSGIPSRFSGSGSGTDFTLTISSLEPEDFAMYYCQQHNEYPWTFGGGTKLEIK
Consider B14, for which the EC50 of the mixture with nivolumab (both antibodies at the same concentration), NFAT reporter luminescence (PD-1+TIGIT+ effector cells + PD-L1+CD155 aAPC/CHO-K1 cells) in assay [9] was determined as 0.923 µg/mL. For the same molecule, the EC50, NFAT reporter luminescence (TIGIT effector cells + CD155 aAPC/CHO-K1 cells; blocked ligand PVR/CD155) in assay [1] was 3.74 µg/mL. Moreover, the EC50 of the mixture with pembrolizumab (both antibodies at the same concentration), NFAT reporter luminescence (PD-1+TIGIT+ effector cells + PD-L1+CD155 aAPC/CHO-K1 cells) in [10] is 0.611 µg/mL.

B15: 7A6 VH0/Vκ0 chimeric antibody (human IgG1, kappa) (antibody, V domains shown)
VH: DVQLQESGPGLVKPSQSLSLTCTVTGYSITSDYAWNWIRQFPGNKLEWMGYISYSGSARYNPSLKSRISITRDTSMNQFFLQLNSVTAEDTATYYCARKGYPAYFAYWGQGTLVTVSS
VL: DIVMTQSHKFMSTSVGDRVSISCKASQDVSTAVAWYQQKPGQSPELLIYSASYRYTGVPDRFTGSGSGTDFTFTISSVQAEDLAVYYCQHHYSTPYTFGGGTKLEMKR
notes: Mouse 7A6 variable regions on human IgG1/kappa constant regions; also called VH0/Vk0; 7A6 VH0Vk0
In the case of B15, in [2], the “Relative KD” value stood at 1. In assay [3], the Kd was 652 pM, the dissociation rate constant (koff) came out at 0.0016 s⁻¹ and the on-rate (kon) came out at 2.46e+06 M⁻¹ s⁻¹. Moreover, in [6], the Kd amounted to 77 pM, the koff is 0.000176 s⁻¹ and the kon is 2.28e+06 M⁻¹ s⁻¹.
